Measurements published in patent publication US20010039258A1, “Active agent transport systems” (Emisphere Technologies, Inc., priority 1990, published 2001).
Bridge positions count the residues as written; N and C are the ends. Ends that are not written are not given here.

Legend:
[1] = DSC of rhGh, effect of ionic strength; format: physicochemical; details: pH 7.5
[2] = DSC of rhGh, effect of pH; format: physicochemical
Protocol: (§1) Scanning calorimetry was performed using 5 mg 0.83 mM porcine insulin (MW 6,000) per mL in 50 mM phosphate buffer, pH 7.5. All thermograms were performed on a Microcal MC-2 scanning calorimeter equipped with the DA2 data acquisition system operated in the upscale mode at 1° C./min (up to 90° C.), and data points were collected at 20 second intervals. All scans were initiated at least 20 degrees below the observed transitions for the active agent. All thermograms were corrected for baseline subtraction and normalized for the concentration of macromolecule. According to the methods of the Johns Hopkins Biocalorimetry Center, See, for example, Ramsay et al. Biochemistry (1990) 29:8677-8693; Schon et al. Biochemistry (1989) 28:5019-5024 (1990) 29: 781-788.
5 mg/mL rhGh were dissolved in buffer (0.17 mM in 50 mM phosphate buffer, assuming a molecular weight of 20,000). The pH of the solution was adjusted to the desired value, and all curves were corrected by baseline subtraction.
The effect of pH on structure was assessed by DSC according to the procedure of Example 9 where individual solutions were prepared in phosphate buffer ranging in pH value from 2.0 to 6.0.

[3] = DSC of rhGh, effect of GuHCl; format: physicochemical; details: pH 7.5
Protocol: as §1
An initial scan of rhGh was performed at 10 mg/mL in the absence of GuHCl (0.33 mM assuming 20,000 molecular weight). Subsequently, the concentration of rhGh was lowered to 5 mg/mL (0.17 mM) in 50 mM phosphate buffer, pH 7.5 containing varying concentrations of GuHCl. Each subsequent thermogram was corrected by background subtraction of a 0.5 M guanidine-phosphate buffer solution. The thermograms were corrected by subtraction of a 0.5M NaCl-phosphate buffer blank. Scans were performed according to the procedure of Example 9.

[4] = In vivo delivery of rhGH in rats, sublingual, intranasal, oral; details: rat, no carrier, drug dose 6 mg/kg
Protocol: Dosing compositions were prepared by mixing the modified amino acids and recombinant human growth hormone (rhGH) as listed in Table 16 below in a phosphate buffer solution at a pH of about 7-8.
Rats were administered the dosing composition by sublingual or intranasal administration. Delivery was evaluated by using an ELISA assay for rhGH from Medix Biotech, Inc. For intracolonic administration, a sample was prepared and dosed to fasted rats at 25 mg/kg of carrier in a buffered solution containing propylene glycol (0-50%) and 1 mg/kg rhGH.
rhGH ([…]) was administered by oral gavage to a rat, and delivery was evaluated according to the procedure of Example 41A.

[5] = In vivo rhGH in rats, subcutaneous, with delivery agents; set-up: species or system Sprague-Dawley rats; details: rat; no delivery agent (Example 43A)
Protocol: (§2) The delivery agents were reconstituted with distilled water and adjusted to pH 7.2-8.0 with either aqueous hydrochloric acid or aqueous sodium hydroxide. A stock solution of rhGH was prepared by mixing rhGH, D-mannitol and glycine and dissolving this mixture in 2% glycerol/water. The stock solution was then added to the delivery agent solution. Several delivery agent to active agent ratios were studied.
Male Sprague-Dawley rats weighing 200-250 g were fasted for 24 hours and administered ketamine (44 mg/kg) and chlorpromazine (1.5 mg/kg) 15 minutes prior to dosing. The rats were administered one of the dosing solutions described above by subcutaneous injection, intranasal instillation, or sublingual instillation. Blood samples were collected serially from the tail artery for serum calcium concentration determination or serum rhGH concentrations. The dose of rhGH administered in these experiments was 0.1 mg/kg.
Serum rhGH concentrations were quantified by an rhGH enzyme immunoassay test kit.
rhGH (1 mg/kg) was administered by oral gavage to a rat, and delivery was evaluated according to the procedure of Example 43.

[6] = DSC of rhGh, effect of pH; format: physicochemical; details: pH 7.5 (10 mg/mL)
serum calcium = assay: In vivo salmon calcitonin in rats, subcutaneous, with delivery agents; set-up: species or system Sprague-Dawley rats; details: sCT 0.2 μg/kg, no delivery agent (Example 55A)
Protocol: as §2, with “sCT” for “rhGH”, “by” for “by mixing rhGH, D-mannitol and glycine and”, “sCT” for “this mixture”, “citric acid (0.085N).” for “2% glycerol/water.”, “Several different” for “Several”
Male Sprague-Dawley rats weighing 200-250 g were fasted for 24 hours and administered ketamine (44 mg/kg) and chlorpromazine (1.5 mg/kg) 15 minutes prior to dosing. The rats were administered one of the dosing solutions described above by subcutaneous injection. Blood samples were collected serially from the tail artery for serum calcium concentration.
Serum calcium concentrations were quantified by the o-cresolphthalein complexone method (Sigma) using a UV/VIS spectrophotometer (Perkin Elmer).
Salmon calcitonin was administered by oral gavage to rats, and delivery was evaluated according to the Procedure of Example 55.

rhGh: recombinant human growth hormone
Tm (Cp, max) ([1]; 0.0 M NaCl): 75.2 °C | ΔH° ([1]; 0.0 M NaCl): 191.0 kcal/mol | Tm (Cp, max) ([1]; 0.5 M NaCl): 75.8 °C | ΔH° ([1]; 0.5 M NaCl): 89.7 kcal/mol | ΔH° ([1]; 1.0 M NaCl): 50.5 kcal/mol | Tm (Cp, max) ([1]; 10.0 M NaCl): 76.5 °C | Tm (Cp, max) ([2]; pH 2.0): no transition observed | ΔH° ([2]; pH 2.0): no transition observed | Tm (Cp, max) ([2]; pH 3.0): no transition observed | ΔH° ([2]; pH 3.0): no transition observed | Tm (Cp, max) ([2]; pH 3.5): no transition observed | ΔH° ([2]; pH 3.5): no transition observed | Tm (Cp, max) ([2]; pH 4.0): ≈73.0 °C | ΔH° ([2]; pH 4.0): broad transition | Tm (Cp, max) ([2]; pH 5.0): 75.0 °C | ΔH° ([2]; pH 5.0): 161 kcal/mol | Tm (Cp, max) ([2]; pH 6.0): 75.2 °C | ΔH° ([2]; pH 6.0): 191 kcal/mol | DOMAIN A Tm (Cp, max) ([3]; 0.5 M GuHCl): 71.5 °C | DOMAIN B Tm (Cp, max) ([3]; 0.5 M GuHCl): not defined, | ΔH° ([3]; 0.5 M GuHCl): 48 kcal/mol | DOMAIN A Tm (Cp, max) ([3]; 1.0 M GuHCl): 70.9 °C | DOMAIN B Tm (Cp, max) ([3]; 1.0 M GuHCl): absent | ΔH° ([3]; 1.0 M GuHCl): 109 kcal/mol | DOMAIN A Tm (Cp, max) ([3]; 1.5 M GuHCl): 69.7 °C | DOMAIN B Tm (Cp, max) ([3]; 1.5 M GuHCl): absent | ΔH° ([3]; 1.5 M GuHCl): 12 kcal/mol | DOMAIN A Tm (Cp, max) ([3]; 2.0 M GuHCl): 70.0 °C | DOMAIN B Tm (Cp, max) ([3]; 2.0 M GuHCl): absent | ΔH° ([3]; 2.0 M GuHCl): 58 kcal/mol | DOMAIN A Tm (Cp, max) ([3]; 2.5 M GuHCl): 70.7 °C | DOMAIN B Tm (Cp, max) ([3]; 2.5 M GuHCl): absent | ΔH° ([3]; 2.5 M GuHCl): 99 kcal/mol | DOMAIN A Tm (Cp, max) ([3]; no GuHCl, rhGh 10 mg/mL): 72.6 °C | DOMAIN B Tm (Cp, max) ([3]; no GuHCl, rhGh 10 mg/mL): 74.3 °C | ΔH° ([3]; no GuHCl, rhGh 10 mg/mL): 632 kcal/mol | Mean Peak Serum Levels of rhGH [4]: <10 ± 10 ng/mL | Peak Serum [rhGH] [5]: 4 ± 2 ng/mL | Tm (Cp, max), transition a) [6]: a) 73 °C | Tm (Cp, max), transition b) [6]: b) 75 °C | ΔH°, (a) + (b) [6]: (a) + (b) = 632 kcal/mol

sCT: Salmon Calcitonin (CSNLSTCVLGKLSQELHKLQTYPRTNTGSGTP-NH2; disulfide 1-7; ends not checked)
Percent Decrease in Serum Calcium (serum calcium): 17 ± 2%
